Biological target: T1, human recombinant biotinylated FcRn (Immunitrack) (human, UniProt P55899 24-297, biotinylated (site not told))
T1 construct: Immobilised on a ProteOn NLC chip for SPR at pH 6.0; also called human FcRn; hFcRn
Assay: SPR, human FcRn immobilised, IL-12Fc variants in solution, pH 6.0
Experimental: SPR was performed using the ProteOn XPR36 System (Bio-Rad Laboratories, Inc.), coating human recombinant biotinylated FcRn (Immunitrack) on a ProteOn NLC sensor chip to approximately 80 response units (RU). […] The dissociation time was 600 s. Analysis was performed using the ProteOn Manager software (Bio-Rad Laboratories, Inc.) using data normalization to the injection time, interspot background removal and build-in artefact removal function. Kd were calculated using the equilibrium analysis model.

T1 sequence (P55899 24-297): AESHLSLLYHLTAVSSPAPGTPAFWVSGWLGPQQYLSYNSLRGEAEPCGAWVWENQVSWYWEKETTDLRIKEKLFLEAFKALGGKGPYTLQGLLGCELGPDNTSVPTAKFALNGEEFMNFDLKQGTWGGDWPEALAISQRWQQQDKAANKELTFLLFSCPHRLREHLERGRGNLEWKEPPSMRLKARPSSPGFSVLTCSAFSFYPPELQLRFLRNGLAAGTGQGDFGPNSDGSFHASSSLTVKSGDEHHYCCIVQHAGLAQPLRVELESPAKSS

fold reduction of affinity against IL-12Fc WT: ~8 fold
B1: human IL-12Fc NHQ (Fc fusion)
chain: IWELKKDVYVVELDWYPDAPGEMVVLTCDTPEEDGITWTLDQSSEVLGSGKTLTIQVKEFGDAGQYTCHKGGEVLSHSLLLLHKKEDGIWSTDILKDQKEPKNKTFLRCEAKNYSGRFTCWWLTTISTDLTFSVKSSRGSSDPQGVTCGAATLSAERVRGDNKEYEYSVECQEDSACPAAEESLPIEVMVDAVHKLKYENYTSSFFIRDIIKPDPPKNLQLKPLKNSRQVEVSWEYPDTWSTPHSYFSLTFCVQVQGKSKREKKDRVFTDKTSATVICRKNASISVRAQDRYYSSSWSEWASVPCSRNLPVATPDPGMFPCLHHSQNLLRAVSNMLQKARQTLEFYPCTSEEIDHEDITKDKTSTVEACLPLELTKNESCLNSRETSFITNGSCLASRKTSFMMALCLSSIYEDLKMYQVEFKTMNAKLLMDPKRQIFLDQNMLAVIDELMQALNFNSETVPQKSSLEEPDFYKTKIKLCILLHAFRIRAVTIDRVMSYLNASKVDKRVESKYGPPCPPCPAPEFLGGPSVFLFPPKPKDTLMNSRTPEVTCVVVDVSQEDPEVQFNWYVDGVEVHNAKTKPREEQFNSTYRVVSVLTVLHQDWLNGKEYKCKVSNKGLPSSIEKTISKAKGQPREPQVYTLPPSPEEMTKNQVSLTCLVKGFYPSDIAVEWESNGQPENNYKTTPPVLDSDGSFFLYSRLTVDKSRWQEGNVFSCSVMHEALHNQYTQKSLSLSLGK
notes: mature; As m1 with I253N and H435Q (EU) in the Fc; also called NHQ variant; not shown: Gly-Ser-linker between p40 and p35
